In US20030103903A1:

Molecular target: IgE of unfractionated patient serum (pool of patients' sera known to be reactive to the epitope peptide) (human)
Assay: inhibition: whole patients' sera pre-incubated with soluble peptide, then probing solid-phase E1 peptide

- amount of soluble peptide needed to completely inhibit binding: 70 µg
B1: soluble form of the epitope peptide … (peptide)
peptide: QGLRGEEMEEMV
